Here are results for 2 substances from publication PMC5413573.

This assay addresses RseP of E. faecalis LMG3358 (membrane-bound Zn-dependent site-2 protease) (E. faecalis) (UniProt Q9RPP2).
UniProt Q9RPP2, sequence (Q9RPP2 whole entry): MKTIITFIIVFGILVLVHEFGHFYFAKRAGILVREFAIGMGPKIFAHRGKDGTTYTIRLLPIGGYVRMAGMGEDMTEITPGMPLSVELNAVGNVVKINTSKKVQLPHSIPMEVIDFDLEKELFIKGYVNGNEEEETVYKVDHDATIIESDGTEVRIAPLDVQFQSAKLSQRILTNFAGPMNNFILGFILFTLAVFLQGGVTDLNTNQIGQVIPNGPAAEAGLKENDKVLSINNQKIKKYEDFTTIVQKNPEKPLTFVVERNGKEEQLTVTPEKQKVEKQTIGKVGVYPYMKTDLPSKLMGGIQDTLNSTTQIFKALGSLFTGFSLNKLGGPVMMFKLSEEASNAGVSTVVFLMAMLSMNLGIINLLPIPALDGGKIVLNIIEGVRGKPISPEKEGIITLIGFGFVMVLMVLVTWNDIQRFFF

Consider Enterocin EJ97 (peptide), for which the MIC (nM) of the bacteriocin against S. pneumoniae ds220 induced to express E. faecalis rseP (microtiter plate growth inhibition; non-induced cells and cells without rseP >4500 nM) was found to be 18 nM. Turning to Enterocin K1 (peptide), the MIC (nM) of the bacteriocin against S. pneumoniae ds220 induced to express E. faecalis rseP (microtiter plate growth inhibition; non-induced cells and cells without rseP >5500 nM) is 700 nM.
